Measured values taken from patent US20200140562A1 (Innovent, published 2020).

T1: human OX40 on cells (CHO-hOX40, 293HEK-hOX40, Jurkat-hOX40, activated primary CD4+ T cells) (human, UniProt P43489 29-277)
T1 construct: whole, on cells; The cell type is told in each assay; also called CHO-OX40
T1 sequence (looked up): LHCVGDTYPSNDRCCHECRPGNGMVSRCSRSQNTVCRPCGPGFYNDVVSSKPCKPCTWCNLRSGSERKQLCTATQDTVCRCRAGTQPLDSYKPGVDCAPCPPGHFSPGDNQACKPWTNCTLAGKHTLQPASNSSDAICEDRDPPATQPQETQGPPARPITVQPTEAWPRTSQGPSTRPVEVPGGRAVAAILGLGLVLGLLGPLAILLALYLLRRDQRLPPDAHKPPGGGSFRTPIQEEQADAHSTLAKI

T2: mouse OX40Fc (Acro Biosystems) (mouse, UniProt P47741 20-211, limits assumed)
T2 construct: Bought; not shown: Fc
T2 sequence (looked up): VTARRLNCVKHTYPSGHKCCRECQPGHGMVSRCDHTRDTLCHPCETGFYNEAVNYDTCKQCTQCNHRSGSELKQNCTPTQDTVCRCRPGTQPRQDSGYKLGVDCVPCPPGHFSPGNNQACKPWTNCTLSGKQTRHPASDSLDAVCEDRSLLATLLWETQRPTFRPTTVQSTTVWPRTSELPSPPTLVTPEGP

T3: Human biotinylated OX40-His monomer (human, UniProt P43489 29-216, limits assumed, biotinylated)
T3 construct: Bought from Acro Biosystems; also called biotin-OX-40 monomer; not shown: His tag
T3 sequence (looked up): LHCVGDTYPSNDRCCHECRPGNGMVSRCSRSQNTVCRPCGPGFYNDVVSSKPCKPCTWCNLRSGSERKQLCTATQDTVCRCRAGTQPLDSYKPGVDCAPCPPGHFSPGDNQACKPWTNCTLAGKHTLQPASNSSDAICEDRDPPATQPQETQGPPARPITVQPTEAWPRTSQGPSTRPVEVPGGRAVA

B1: ADI-20065, Fab (Fab, V domains shown)
VH: QLQLQESGPGLVKPSETLSLTCTVSGGSISSSSYYWGWIRQPPGKGLEWIGSIYYSGSTYYNPSLKSRVTISVDTSKNQFSLKLSSVTAADTAVYYCARDPGYSASPNWFDPWGQGTLVTVSS
VL: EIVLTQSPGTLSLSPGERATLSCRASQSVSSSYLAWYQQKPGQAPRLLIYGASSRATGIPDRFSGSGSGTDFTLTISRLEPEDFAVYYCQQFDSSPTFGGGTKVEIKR
B2: ADI-20051, Fab (Fab, V domains shown)
VH: QVQLQQWGAGLLKPSETLSLTCAVYGGSFSGYYWSWIRQPPGKGLEWIGEIDHSGSTNYNPSLKSRVTISVDTSKNQFSLKLSSVTAADTAVYYCARDGGGGYASPFDYWGQGTLVTVSS
VL: EIVMTQSPATLSVSPGERATLSCRASQSVSSNLAWYQQKPGQAPRLLIYGASTRATGIPARFSGSGSGTEFTLTISSLQSEDFAVYYCQQYHAWPPTFGGGTKVEIKR
B3: ADI-25652, IgG1 format (antibody, V domains shown)
VH: QVQLVESGGGVVQPGRSLRLSCAASGFTFVSYNMHWVRQAPGKGLEWVAVIAYDGSVKYYADSVKGRFTISRDNSKNTLYLQMNSLRAEDTAVYYCARGRPWYSETGTSAFDIWGQGTMVTVSS
VL: DIQMTQSPSSLSASVGDRVTITCQASQDISNYLNWYQQKPGKAPKLLIYDASNLETGVPSRFSGSGSGTDFTFTISSLQPEDIATYYCQQSDHYPTFGGGTKVEIKR
notes: Made in yeast
B4: ADI-25651, Fab (Fab, V domains shown)
VH: QVQLVESGGGVVQPGRSLRLSCAASGFTFSSRNMHWVRQAPGKGLEWVAVIAYDGSLKYYADSVKGRFTISRDNSKNTLYLQMNSLRAEDTAVYYCARGRPWYSETGTSAFDIWGQGTMVTVSS
VL: DIQMTQSPSSLSASVGDRVTITCQASQDISNYLNWYQQKPGKAPKLLIYDASNLETGVPSRFSGSGSGTDFTFTISSLQPEDIATYYCQQSDHYPTFGGGTKVEIKR
B5: ADI-25653, Fab (Fab, V domains shown)
VH: QVQLVESGGGVVQPGRSLRLSCAASGFTFVSYNMHWVRQAPGKGLEWVAVIMYDGSAKYYADSVKGRFTISRDNSKNTLYLQMNSLRAEDTAVYYCARGRPWYSETGTSAFDIWGQGTMVTVSS
VL: DIQMTQSPSSLSASVGDRVTITCQASQDISNYLNWYQQKPGKAPKLLIYDASNLETGVPSRFSGSGSGTDFTFTISSLQPEDIATYYCQQSDHYPTFGGGTKVEIKR
B6: ADI-20112, Fab (Fab, V domains shown)
VH: QVQLVESGGGVVQPGRSLRLSCAASGFTFSSYGMHWVRQAPGKGLEWVAVISYDGSNKYYADSVKGRFTISRDNSKNTLYLQMNSLRAEDTAVYYCARGRPWYSETGTSAFDIWGQGTMVTVSS
VL: DIQMTQSPSSLSASVGDRVTITCQASQDISNYLNWYQQKPGKAPKLLIYDASNLETGVPSRFSGSGSGTDFTFTISSLQPEDIATYYCQQSDHYPTFGGGTKVEIKR
B7: ADI-20113, Fab (Fab, V domains shown)
VH: QVQLVESGGGVVQPGRSLRLSCAASGFTFSSYGMHWVRQAPGKGLEWVAVISYDGSNKYYADSVKGRFTISRDNSKNTLYLQMNSLRAEDTAVYYCARGRPWYSETGTSAFDIWGQGTMVTVSS
VL: EIVMTQSPATLSVSPGERATLSCRASQSVSSNLAWYQQKPGQAPRLLIYSASTRATGIPARFSGSGSGTEFTLTISSLQSEDFAVYYCQQHNVYPPYTFGGGTKVEIKR
B8: ADI-25654, Fab (Fab, V domains shown)
VH: QVQLVESGGGVVQPGRSLRLSCAASGFTFRSYDMHWVRQAPGKGLEWVAYIAYDGSNKYYADSVKGRFTISRDNSKNTLYLQMNSLRAEDTAVYYCARGRPWYSETGTSAFDIWGQGTMVTVSS
VL: DIQMTQSPSSLSASVGDRVTITCQASQDISNYLNWYQQKPGKAPKLLIYDASNLETGVPSRFSGSGSGTDFTFTISSLQPEDIATYYCQQSDHYPTFGGGTKVEIKR
B9: ADI-25650, Fab (Fab, V domains shown)
VH: QVQLVESGGGVVQPGRSLRLSCAASGFTFSVYNMHWVRQAPGKGLEWVAVIAYDGSAKYYADSVKGRFTISRDNSKNTLYLQMNSLRAEDTAVYYCARGRPWYSETGTSAFDIWGQGTMVTVSS
VL: DIQMTQSPSSLSASVGDRVTITCQASQDISNYLNWYQQKPGKAPKLLIYDASNLETGVPSRFSGSGSGTDFTFTISSLQPEDIATYYCQQSDHYPTFGGGTKVEIKR
B10: ADI-25652, Fab (Fab, V domains shown)
VH: QVQLVESGGGVVQPGRSLRLSCAASGFTFVSYNMHWVRQAPGKGLEWVAVIAYDGSVKYYADSVKGRFTISRDNSKNTLYLQMNSLRAEDTAVYYCARGRPWYSETGTSAFDIWGQGTMVTVSS
VL: DIQMTQSPSSLSASVGDRVTITCQASQDISNYLNWYQQKPGKAPKLLIYDASNLETGVPSRFSGSGSGTDFTFTISSLQPEDIATYYCQQSDHYPTFGGGTKVEIKR
B11: ADI-20118, Fab (Fab, V domains shown)
VH: QVQLVQSGAEVKKPGASVKVSCKASGYTFTSYAISWVRQAPGQGLEWMGWISAYNGNTNYAQKLQGRVTMTTDTSTSTAYMELRSLRSDDTAVYYCARSGGGSGPNWFDPWGQGTLVTVSS
VL: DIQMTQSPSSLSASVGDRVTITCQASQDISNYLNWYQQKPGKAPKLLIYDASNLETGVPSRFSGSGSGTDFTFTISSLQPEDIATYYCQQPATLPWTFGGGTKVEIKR
B12: ADI-23518, IgG1 format (antibody, V domains shown)
VH: QVQLQESGPGLVKPSQTLSLTCTVSGGSISSGASYWSWIRQHPGKGLEWIGYIYYSGETYYNPSLKSRVTISVDTSKNQFSLKLSSVTAADTAVYYCARDVGYPHYYGMDVWGQGTTVTVSS
VL: EIVLTQSPGTLSLSPGERATLSCRASQSVSSSYLAWYQQKPGQAPRLLIYGASSRATGIPDRFSGSGSGTDFTLTISRLEPEDFAVYYCQQSERSPFTFGGGTKVEIKR
notes: Made in yeast
B13: ADI-20066, Fab (Fab, V domains shown)
VH: QLQLQESGPGLVKPSETLSLTCTVSGGSISSSSYYWGWIRQPPGKGLEWIGSIYYSGSTYYNPSLKSRVTISVDTSKNQFSLKLSSVTAADTAVYYCARDPGYSASPNWFDPWGQGTLVTVSS
VL: EIVLTQSPGTLSLSPGERATLSCRASQSVSSSFLAWYQQKPGQAPRLLIYGASSRATGIPDRFSGSGSGTDFTLTISRLEPEDFAVYYCQQYDVFPITFGGGTKVEIKR
B14: ADI-23518, Fab (Fab, V domains shown)
VH: QVQLQESGPGLVKPSQTLSLTCTVSGGSISSGASYWSWIRQHPGKGLEWIGYIYYSGETYYNPSLKSRVTISVDTSKNQFSLKLSSVTAADTAVYYCARDVGYPHYYGMDVWGQGTTVTVSS
VL: EIVLTQSPGTLSLSPGERATLSCRASQSVSSSYLAWYQQKPGQAPRLLIYGASSRATGIPDRFSGSGSGTDFTLTISRLEPEDFAVYYCQQSERSPFTFGGGTKVEIKR
B15: ADI-23515, Fab (Fab, V domains shown)
VH: QVQLQESGPGLVKPSQTLSLTCTVSGGSIRSGAYYWSWIRQHPGKGLEWIGYIYYDGQTYYNPSLKSRVTISVDTSKNQFSLKLSSVTAADTAVYYCARDVGYPHYYGMDVWGQGTTVTVSS
VL: EIVLTQSPGTLSLSPGERATLSCRASQSVSSSYLAWYQQKPGQAPRLLIYGASSRATGIPDRFSGSGSGTDFTLTISRLEPEDFAVYYCQQSERSPFTFGGGTKVEIKR
B16: ADI-23519, Fab (Fab, V domains shown)
VH: QVQLQESGPGLVKPSQTLSLTCTVSGGSISSGSSYWSWIRQHPGKGLEWIGYIYMSGETYYNPSLKSRVTISVDTSKNQFSLKLSSVTAADTAVYYCARDVGYPHYYGMDVWGQGTTVTVSS
VL: EIVLTQSPGTLSLSPGERATLSCRASQSVSSSYLAWYQQKPGQAPRLLIYGASSRATGIPDRFSGSGSGTDFTLTISRLEPEDFAVYYCQQSERSPFTFGGGTKVEIKR
B17: ADI-23519, IgG1 format (antibody, V domains shown)
VH: QVQLQESGPGLVKPSQTLSLTCTVSGGSISSGSSYWSWIRQHPGKGLEWIGYIYMSGETYYNPSLKSRVTISVDTSKNQFSLKLSSVTAADTAVYYCARDVGYPHYYGMDVWGQGTTVTVSS
VL: EIVLTQSPGTLSLSPGERATLSCRASQSVSSSYLAWYQQKPGQAPRLLIYGASSRATGIPDRFSGSGSGTDFTLTISRLEPEDFAVYYCQQSERSPFTFGGGTKVEIKR
notes: Made in yeast

What was measured:
[1] = biological target: T4, human OX40_Fc (R&D Systems) (human, UniProt P43489 29-216); experiment: BLI, hOX40-Fc on tip, Fab 200 nM, monovalent
T4 construct: Bought

[2] = biological target: T1, human OX40 on cells (CHO-hOX40, …); experiment: flow cytometry, MFI on CHO-hOX40 over wild-type CHO
[3] = biological target: T5, cyno OX40_Fc (Acro Biosystems) (cyno); experiment: BLI, IgG1 on tip, cyno OX40-Fc 100 nM, avid
T5 construct: Bought
Description: Sensors with loaded antibodies were exposed to 100 nM OX40 antigens for 5 min, afterwards they were transferred to assay buffer for dissociation of 5 min for off-rate measurement. Kinetics was analysed using the 1:1 binding model.

[4] = biological target: T4, human OX40_Fc (R&D Systems); experiment: BLI, IgG1 on tip, hOX40-Fc 50 nM, avid
[5] = biological target: T1, human OX40 on cells (CHO-hOX40, …); experiment: flow cytometry, CHO-hOX40, 100 nM
[6] = biological target: T2, mouse OX40Fc (Acro Biosystems); experiment: BLI, IgG1 on tip, mouse OX40-Fc in solution
[7] = biological target: T4, human OX40_Fc (R&D Systems); experiment: BLI, hOX40-Fc on tip, Fab 200 nM, monovalent; remark: listed apart in the source
[8] = biological target: T3, Human biotinylated OX40-His monomer; experiment: MSD-SET, biotinylated OX40-His monomer with Fab

| Binder | Kd [1] [nM] | Kd [7] [nM] | Kd [8] [nM] | other results |
| --- | --- | --- | --- | --- |
| B1 | 10.8 |  |  |  |
| B2 | 25.8 |  |  |  |
| B3 |  |  |  | Fold difference [2]: 2400 fold; Kd [3]: 2.11 nM; Kd [4]: 0.261 nM; CHO-OX40 binding intensity (MFI) [5]: 253000 MFI; binding result [6]: no binding (tested: 100 nM) |
| B4 |  | 2.32 | 0.17 |  |
| B5 |  | 1.63 | 0.086 |  |
| B6 | 70.6 | 63.9 |  |  |
| B7 | 182 |  |  |  |
| B8 |  | 1.8 | 0.18 |  |
| B9 |  | 1.04 | 0.14 |  |
| B10 |  | 1.31 | 0.15 |  |
| B11 | 137 |  |  |  |
| B12 |  |  |  | Fold difference [2]: 1480 fold; Kd [3]: 1.08 nM; Kd [4]: 0.297 nM; CHO-OX40 binding intensity (MFI) [5]: 173000 MFI |
| B13 | 21.8 |  |  |  |
| B14 |  | 7.16 |  |  |
| B15 |  | 3.79 | 0.16 |  |
| B16 |  | 5.36 |  |  |
| B17 |  |  |  | Kd [3]: 1.1 nM; Kd [4]: 0.255 nM |
